Key:
[1] = molecular target: T1, PAI-1 (Homo sapiens, UniProt P05121); experiment: Inhibition of PAI-1 anti-proteolytic activity, uPA/plasminogen chromogenic (colorimetric) assay; assay type: biochemical; conditions: for PAI-1 activity in vitro (chromogenic assay): yes/no, table title: Peptide fragments inhibiting PAI-1
T1 construct: gift of Pr; P. Declerck
Procedure: The main physiological function of PAI-1 is to inhibit uPA and tPA proteolytic activity. […] A chromogenic substrate for plasmin (Spectrozyme PL: 0.5 mM. American Diagnostica INC) in PBS was added to the mixture in 96-well microtitration plates and kept at room temperature. The release of free p-nitro-aniline from the chromogenic substrate was measured spectrophotometrically. The activity of plasmin was determined as the absorbance at 405 nm.

[2] = molecular target: T1, PAI-1; experiment: In vitro clot lysis assay in pooled normal human plasma with added PAI-1 and tPA; assay type: biochemical; conditions: peptides 25 μM, human plasma; for ablility to induce clot lysis: yes/no, added PAI-1, tPA
Procedure: Clot lysis was performed as follows: pooled normal plasma were used in citrated tube. Recombinant wild type PAI-1 was incubated in the presence or in the absence of 16K hPRL (3 μM), 14K hGH (3 μM) or different peptides (25 μM) for 10 min at 37° C., before to be added to diluted plasma in tris tween buffer (75 μl of plasma in 200 μl of 10 mM TRIS pH 7.5, 0.01% tween 20), followed by a second incubation for 10 min at 37° C. tPA was added to each tube at the end to reach a final volume of […]. Aliquots from each tube (80 μl) were added in duplicate to 96 wells, each containing 20 μl CaCl2 to give the following final concentration per well of 10 mM. Clot formation and dissolution were monitored at RT measuring turbidity at 405 nm in 5 min intervals.

[3] = molecular target: T1, PAI-1; experiment: Casein zymography of plasmin generation by uPA in presence of PAI-1; assay type: biochemical
Procedure: (a) Proteolytic activity of uPA on plasminogen (Plg) in different conditions was determined by colorimetric assay (absorbance at 405 nm) as described in Methods. […] The data represent the means±SD of duplicate samples and experiment was repeated at least three times. (b) Casein zymography showing Plg and plasmin (Pln) generation by uPA in the presence of PAI-1 alone or in combination with 14K GH or 22K GH.
For this test casein (1 mg/ml) was incorporated in 10% SDS polyacrylamide gels. Aliquots of in vitro reaction including recombinant proteins were mixed with loading buffer (10% SDS, 4% Sucrose, 0.25M Tris-Hcl pH6-8, 0.1% Bromophenol blue). After electrophoresis, SDS was removed from the gel by two washes (30 min each) of 100 mM glycine, 2.5% Triton buffer (pH 8.0) stained with 0.1% coomassie brilliant bleu, and destained in 20% methanol/10% acetic acid.

[4] = molecular target: T2, PAI-1 (Mus musculus, UniProt P22777); experiment: Murine thromboembolism model (tPA/thromboplastin); assay type: in vivo; conditions: POPRL 7-12 10 mg/kg i.v. 5 min before t-PA/thromboplastin; control 50; p=0.3
T2 construct: from tissue; host or cells: BalbC Njrj mice, in vivo (blood)
T2 sequence (P22777 23-402): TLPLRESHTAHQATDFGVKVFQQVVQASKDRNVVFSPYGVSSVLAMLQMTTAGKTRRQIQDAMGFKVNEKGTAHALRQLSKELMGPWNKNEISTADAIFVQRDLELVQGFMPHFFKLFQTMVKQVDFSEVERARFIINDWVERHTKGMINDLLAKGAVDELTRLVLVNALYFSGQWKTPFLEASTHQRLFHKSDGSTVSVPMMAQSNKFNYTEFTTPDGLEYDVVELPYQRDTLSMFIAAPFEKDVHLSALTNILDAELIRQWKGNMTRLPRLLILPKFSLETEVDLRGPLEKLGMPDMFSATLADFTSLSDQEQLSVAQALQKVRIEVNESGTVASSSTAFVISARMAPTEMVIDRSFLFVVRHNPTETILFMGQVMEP
Procedure: BalbC Njrj Mice were used and anesthetised with ketamine/xylazine throughout the whole experiment. Recombinant 16K PRL and adenovirus vectors 16K-Ad and Null-Ad were produced as described above. The animal experiment protocol used was approved by the Institutional Ethics Committee of the University of Liege.
Recombinant 16K PRL (1 mg/kg) or POPRL 7-12 (10 mg/kg) were administrated via the vein to BalbC Njrj mice of approximately 15-18 g. Five minutes after the injection, a suboptimal concentration of t-PA (0.1 mg/kg) was injected immediately followed by i.v. injection of thromboplastin (3.3 μg/kg) to evoke thromboembolism. Mice were evaluated after 15 min for survival. For experiment with adenovirus vectors, mice were injected into the tail vein with 10^9 pfu of 16K hPRL adenovirus (16K-Ad) and their corresponding control (Null-Ad) 5 days before the injection a suboptimal concentration of t-PA (0.1 mg/kg) injected immediately followed by i.v. injection of thromboplastin (3.3 μg/kg).
The fisher test was used to determine the significance of the differences in the mortality assays.

T1 sequence (P05121 24-402): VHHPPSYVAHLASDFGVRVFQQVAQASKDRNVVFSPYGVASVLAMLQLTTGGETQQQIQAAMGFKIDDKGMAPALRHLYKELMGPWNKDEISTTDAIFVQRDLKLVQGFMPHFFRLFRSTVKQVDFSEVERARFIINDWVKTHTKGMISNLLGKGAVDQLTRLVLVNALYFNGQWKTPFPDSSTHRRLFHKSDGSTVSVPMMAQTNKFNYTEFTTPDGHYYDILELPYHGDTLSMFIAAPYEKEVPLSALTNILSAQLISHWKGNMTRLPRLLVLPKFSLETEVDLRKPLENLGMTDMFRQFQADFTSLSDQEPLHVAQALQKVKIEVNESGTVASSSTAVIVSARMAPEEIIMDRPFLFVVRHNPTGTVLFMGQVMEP

| Substance | PAI-1 activity in vitro (chromogenic assay) [1] | ablility to induce clot lysis [2] | inhibition of PAI-1 function to inhibit uPA and tPA proteolytic activity ([1]; uPA, bovine plasminogen, PAI-1, absorbance 405 nm) | inhibition of plasmin (Pln) generation in the presence of PAI-1 [3] | clot lysis in the presence of added PAI-1 [2] | mortality [4] [%] |
| --- | --- | --- | --- | --- | --- | --- |
| IQSWLE [POGH 9-14] | yes | yes |  |  |  |  |
| LLRISLLLIQSWLE [POGH] | yes | yes |  |  |  |  |
| LLRISL [POGH 1-6] | yes | yes |  |  |  |  |
| SLLLIQ [POGH 5-10] | yes | yes |  |  | as effective as the tilted peptide of GH: POGH |  |
| RISLLL [POGH 3-8] | yes | yes |  |  |  |  |
| SILRSW [POPRL 7-12] | yes | yes |  |  |  | 30 |

Further lines, with some results ahead:

| PAI-1 activity in vitro (chromogenic assay) [1] | ablility to induce clot lysis [2] | inhibition of PAI-1 function to inhibit uPA and tPA proteolytic activity ([1]; uPA, bovine plasminogen, PAI-1, absorbance 405 nm) | inhibition of plasmin (Pln) generation in the presence of PAI-1 [3] | Substance | clot lysis in the presence of added PAI-1 [2] | mortality [4] [%] |
| --- | --- | --- | --- | --- | --- | --- |
| yes | yes |  |  | IVSILR [POPRL 5-10] |  |  |
| yes | yes |  |  | FLSLIV [POPRL 1-6] |  |  |
|  |  | did not show any inhibition | no effect | 22K GH: the full fragment (full-length) growth hormone [reference compound] |  |  |
| no | no |  |  | LSQILSSLIQSWLE [POGHmut, reference compound] |  |  |
